“Also recorded” adds a separate entry of the source. Read-outs that look alike come from different tables or passages of the source.
Experiments:
[1] = Phase 1/2 study of Compound 1: pharmacokinetics; assay type: in vivo, human; conditions: for half-life: in vivo
Text: (§1) This is a first-in-human, Phase 1/2 open-label, multicenter, dose-escalation, safety, pharmacokinetics (PK), and biomarker study of Compound 1 in subjects with advanced or metastatic refractory solid tumors.
• To determine the pharmacokinetics (PK) of Compound 1 • To evaluate the preliminary anti-tumor activity of Compound 1 based on Response Evaluation Criteria in Solid Tumors (RECIST) 1.1 as follows: • Objective response rate (ORR) • Duration of response (DoR) • Progression-free survival (PFS)
(§2) The subject will receive treatment with Compound 1 and be monitored for safety and disease status by AE assessment, physical examination, laboratory tests, radiologic assessment, and ECG. PK and biomarker samples will be collected. All AEs and serious adverse events (SAEs) will be assessed using the National Cancer Institute Common Terminology Criteria for Adverse Events (NCI CTCAE) v5.0. Disease assessments by computed tomography (CT) or magnetic resonance imaging (MRI) will be conducted at protocol-specific intervals. Subjects may continue treatment as long as they are tolerating treatment without disease progression based on RECIST 1.1.
(§3) Compound 1 was administered as a 1-hour IV infusion. As set forth above, the first patient on study was treated with a starting dose of 0.25 mg/kg, which was dosed daily five times a week every 3 weeks (Schedule A). Initially. an accelerated dose tritation was utilized, wherein single patient cohorts were accrued and the dose was escalated up to 100% for each new cohort until the occurrence of Grade 2 or greater treatment-related adverse events (TRAEs). A single patient was accrued to Cohort A1 (0.25 mg/kg). The dose was doubled to 0.5 mg/kg for Cohort A2, and 3 patients were accrued to this cohort due to the occurrence of greater than Grade 2 level adverse events.

[2] = Phase 1/2 study of Compound 1: safety and tolerability (adverse events, NCI CTCAE v5.0); assay type: in vivo, human
Text: as §1
• To determine the safety and tolerability, maximum tolerated doses (MTDs) and dose limiting toxicities (DLTs) of Compound 1 in subjects with advanced or metastatic refractory solid tumors when administered on the following schedules: • Daily×5 every 3 weeks (Part A) • Daily×3 every 3 weeks (Part B) • To establish the Recommended Phase 2 Dose (RP2D) of Compound 1 for each schedule
as §2
DLTs will be assessed for all subjects enrolled in Phase I through their initial 3-week cycle of treatment (Cycle 1, the DLT period). Any AE occurring during the DLT period deemed at least possibly related to Compound 1 and meeting the criteria below will be designated a DLT. […] This will, however, be considered in the SRC's subsequent dose-level recommendations.
as §3
Schedule B: once daily three times per week every three weeks, on a mg/m^2 basis (in other words, the dosage was calculated based on the patient's body surface area)
Schedule C: once weekly on a mg/m^2 basis. Patients treated on this schedule received a sentinel dose on Day -14 followed by 2 weeks of no treatment to evaluate the full PK profile of Compound 1 and exatecan. Once weekly dosing started Cycle 1 Day 1.

[3] = Subject 1-5, Ovarian, prior TOP1 inhibitor Yes, Cohort B1 20 mg/m^2, Schedule B: Daily x 3 Every 3 Weeks
[4] = Subject 1-8, Pancreas, prior TOP1 inhibitor Yes, Cohort C1 20 mg/m^2, Schedule C: Once Weekly
[5] = Subject 1-9, Colorectal, prior TOP1 inhibitor Yes, Cohort B3 45 mg/m^2, Schedule B: Daily x 3 Every 3 Weeks
[6] = Subject 2-4, Appendiceal, prior TOP1 inhibitor Yes, Cohort B2 30 mg/m^2, Schedule B: Daily x 3 Every 3 Weeks
[7] = Subject 2-6, Breast, prior TOP1 inhibitor No, Cohort B2 30 mg/m^2, Schedule B: Daily x 3 Every 3 Weeks
[8] = Subject 2-12, Breast, prior TOP1 inhibitor No, Cohort B4 60 mg/m^2, Schedule B: Daily x 3 Every 3 Weeks
[9] = Subject 3-1, Colorectal, prior TOP1 inhibitor Yes, Cohort B3 45 mg/m^2, Schedule B: Daily x 3 Every 3 Weeks
[10] = Subject 5-2, Colorectal, prior TOP1 inhibitor Yes, Cohort B4 60 mg/m^2, Schedule B: Daily x 3 Every 3 Weeks

In the case of `CC[C@@]1(O)C(=O)OCc2c1cc1n(c2=O)Cc2c-1nc1cc(F)c(C)c3c1c2[C@@H](NC(=O)O[C@H]1CCCC[C@@H]1SSC[C@H](NC(=O)[C@H](Cc1c[nH]c2ccccc12)NC(=O)[C@H](CC(C)C)NC(=O)[C@H](CC(C)C)NC(=O)[C@H](CC(=O)O)NC(=O)[C@H](CC(C)C)NC(=O)[C@H](CC(C)C)NC(=O)[C@H](CC(C)C)NC(=O)[C@@H](NC(=O)[C@H](CC(=O)O)NC(=O)[C@@H](NC(=O)[C@@H]1CCCN1C(=O)[C@H](Cc1ccccc1)NC(=O)[C@H](CC(C)C)NC(=O)[C@H](CC(C)C)NC(=O)[C@H](CC(=O)O)NC(=O)[C@H](CC(C)C)NC(=O)[C@H](Cc1ccc(O)cc1)NC(=O)[C@H](C)NC(=O)[C@H](CCCNC(=N)N)NC(=O)[C@H](Cc1c[nH]c2ccccc12)NC(=O)[C@@H]1CCCN1C(=O)[C@H](CC(N)=O)NC(=O)[C@H](CCC(N)=O)NC(=O)[C@H](CC(=O)O)NC(=O)[C@H](CC(=O)O)NC(=O)[C@H](C)N)[C@@H](C)O)[C@@H](C)O)C(=O)NCC(=O)O)CC3` [Compound 1], the accumulation ([1]; five consecutive days of dosing, Schedule A) is reported as “significant accumulation”, the half-life ([1]; human, initial four patients, Schedule A (daily five times a week every 3 weeks), 0.25-0.5 mg/kg, 1-hour IV infusion, read-out: half-life of Compound 1 (converted)) is reported as about 20 h and the half-life ([1]; prediction made before the study, read-out: predicted half-life (converted)) is reported as about 8 h. For the same compound, the “adverse events, Grade level” value ([2]; Cohort A2, 0.5 mg/kg, Schedule A, 3 patients) was over 2, the “Treatment-Related Adverse Events, Gr 1” value [2, 3] was “Gr 1: Fatigue” and the “Treatment-Related Adverse Events, Gr 2” value [2, 3] was “Dehydration”. For the same compound, the “Treatment-Related Adverse Events” value ([2]; Subject 1-6, Testicular, prior TOP1 inhibitor No, Cohort B1 20 mg/m^2, Schedule B: Daily x 3 Every 3 Weeks) was “No TRAEs”, the “Treatment-Related Adverse Events, Gr 2” value ([2]; Subject 1-7, Esophageal/GEJ (baseline Hgb 9.4), Cohort B1 20 mg/m^2, Schedule B: Daily x 3 Every 3 Weeks) was “Gr 2: Anemia” and the “Treatment-Related Adverse Events, Gr 1” value ([2]; Subject 1-7, Esophageal/GEJ, prior TOP1 inhibitor No, Cohort B1 20 mg/m^2, Schedule B: Daily x 3 Every 3 Weeks) was “Gr 1: Fatigue,”. For the same compound, the “Treatment-Related Adverse Events, Gr 1” value [2, 4] was “Gr 1: Vomiting”, the “Treatment-Related Adverse Events, Gr 2” value [2, 4] was “Gr 2: Nausea” and the “Treatment-Related Adverse Events, Gr 1” value [2, 5] was “Gr 1: Vomiting,; also recorded: diarrhea”. The “Treatment-Related Adverse Events, Gr 2” value [2, 5] was “Gr 2: Nausea”, the “Treatment-Related Adverse Events, Gr 3” value ([2]; Subject 1-9, Colorectal, AST/ALT elevation resolved to Gr 1 in 2-3 days, Cohort B3 45 mg/m^2, Schedule B: Daily x 3 Every 3 Weeks) was “anemia” and the “Treatment-Related Adverse Events” value ([2]; Subject 2-1, Pancreas, prior TOP1 inhibitor Yes, Cohort C1 20 mg/m^2, Schedule C: Once Weekly) was “No TRAES”. The “Treatment-Related Adverse Events” value ([2]; Subject 2-2, Colon, prior TOP1 inhibitor Yes, Cohort C1 20 mg/m^2, Schedule C: Once Weekly, off treatment after PK period) was “No TRAEs”, the “Treatment-Related Adverse Events, Gr 2” value ([2]; Subject 2-3, Ovarian, prior TOP1 inhibitor No, Cohort C1 20 mg/m^2, Schedule C: Once Weekly) was “Gr 2: Fatigue” and the “Treatment-Related Adverse Events, Gr 1” value [2, 6] was “Gr 1: Anemia”. The “Treatment-Related Adverse Events, Gr 2” value [2, 6] was “Gr 2: Nausea,; also recorded: vomiting”, the “Treatment-Related Adverse Events, Gr 3” value ([2]; Subject 2-5, Breast, prior TOP1 inhibitor Yes (C4D11), Cohort B2 30 mg/m^2, Schedule B: Daily x 3 Every 3 Weeks) was “Neutropenia” and the “Treatment-Related Adverse Events, Gr 1” value [2, 7] was “Gr 1: Fatigue,; also recorded: nausea”. The “Treatment-Related Adverse Events, Gr 2” value [2, 7] was “Neutropenia,; also recorded: WBC decrease”, the “Treatment-Related Adverse Events” value ([2]; Subject 2-8, Osteosarcoma, prior TOP1 inhibitor Unknown, Cohort B3 45 mg/m^2, Schedule B: Daily x 3 Every 3 Weeks, removed from study on C1D2) was “No TRAEs” and the “Treatment-Related Adverse Events” value ([2]; Subject 2-9, Breast, prior TOP1 inhibitor No, Cohort C1 20 mg/m^2, Schedule C: Once Weekly) was “No TRAEs”. The “Treatment-Related Adverse Events, Gr 2” value ([2]; Subject 2-11, Ovarian (C1D1 Hgb = 10.3), Cohort B3 45 mg/m^2, Schedule B: Daily x 3 Every 3 Weeks) was “Gr 2: Anemia”, the “Treatment-Related Adverse Events, Gr 3” value ([2]; Subject 2-11, Ovarian (resolved in 2 days), Cohort B3 45 mg/m^2, Schedule B: Daily x 3 Every 3 Weeks) was “Neutropenia” and the “Treatment-Related Adverse Events, Gr 1” value ([2]; Subject 2-11, Ovarian, prior TOP1 inhibitor No, Cohort B3 45 mg/m^2, Schedule B: Daily x 3 Every 3 Weeks) was “Gr 1: Nausea,; also recorded: lipase increase,; also recorded: alopecia”. The “Treatment-Related Adverse Events, Gr 1” value [2, 8] was “Gr 1: Vomiting”, the “Treatment-Related Adverse Events, Gr 2” value [2, 8] was “Gr 2: Colitis” and the “Treatment-Related Adverse Events, Gr 4” value [2, 8] was “Neutropenia,; also recorded: thrombocytopenia”. For the same compound, the “Treatment-Related Adverse Events, Gr 1” value [2, 9] was “Gr 1: Headache”, the “Treatment-Related Adverse Events, Gr 2” value [2, 9] was “Gr 2: Nausea,; also recorded: WBC decrease,; also recorded: ANC decrease,; also recorded: diarrhea” and the “Treatment-Related Adverse Events, Gr 2” value [2, 10] was “Gr2: Vomiting,; also recorded: dehydration”. The “Treatment-Related Adverse Events, Gr 3” value [2, 10] was “anemia” and the “Treatment-Related Adverse Events, Gr 4” value [2, 10] was “Neutropenia,; also recorded: thrombocytopenia”.

Source: US20240226308A1, “DOSING REGIMENS OF PEPTIDE CONJUGATES OF TOPOISOMERASE I INHIBITORS” (CYBREXA 2, INC., priority 2021, published 2024)
